Laboratory results reported in patent US12371675B2, “Process and microorganism for synthesis of adipic acid from carboxylic acids” (THE GOVERNING COUNCIL OF THE UNIVERSITY OF TORONTO, priority 2015, dated 2025).

B1: Mycobacterium smegmatis carboxylate reductase MSMEG_5739, SEQ ID NO: 37 (Mycolicibacterium smegmatis MC2 155) (protein)
chain: MTSDVHDATDGVTETALDDEQSTRRIAELYATDPEFAAAAPLPAVVDAAHKPGLRLAEILQTLFTGYGDRPALGYRARELATDEGGRTVTRLLPRFDTLTYAQVWSRVQAVAAALRHNFAQPIYPGDAVATIGFASPDYLTLDLVCAYLGLVSVPLQHNAPVSRLAPILAEVEPRILTVSAEYLDLAVESVRDVNSVSQLVVFDHHPEVDDHRDALARAREQLAGKGIAVTTLDAIADEGAGLPAEPIYTADHDQRLAMILYTSGSTGAPKGAMYTEAMVARLWTMSFITGDPTPVINVNFMPLNHLGGRIPISTAVQNGGTSYFVPESDMSTLFEDLALVRPTELGLVPRVADMLYQHHLATVDRLVTQGADELTAEKQAGAELREQVLGGRVITGFVSTAPLAAEMRAFLDITLGAHIVDGYGLTETGAVTRDGVIVRPPVIDYKLIDVPELGYFSTDKPYPRGELLVRSQTLTPGYYKRPEVTASVFDRDGYYHTGDVMAETAPDHLVYVDRRNNVLKLAQGEFVAVANLEAVFSGAALVRQIFVYGNSERSFLLAVVVPTPEALEQYDPAALKAALADSLQRTARDAELQSYEVPADFIVETEPFSAANGLLSGVGKLLRPNLKDRYGQRLEQMYADIAATQANQLRELRRAAATQPVIDTLTQAAATILGTGSEVASDAHFTDLGGDSLSALTLSNLLSDFFGFEVPVGTIVNPATNLAQLAQHIEAQRTAGDRRPSFTTVHGADATEIRASELTLDKFIDAETLRAAPGLPKVTTEPRTVLLSGANGWLGRFLTLQWLERLAPVGGTLITIVRGRDDAAARARLTQAYDTDPELSRRFAELADRHLRVVAGDIGDPNLGLTPEIWHRLAAEVDLVVHPAALVNHVLPYRQLFGPNVVGTAEVIKLALTERIKPVTYLSTVSVAMGIPDFEEDGDIRTVSPVRPLDGGYANGYGNSKWAGEVLLREAHDLCGLPVATFRSDMILAHPRYRGQVNVPDMFTRLLLSLLITGVAPRSFYIGDGERPRAHYPGLTVDFVAEAVTTLGAQQREGYVSYDVMNPHDDGISLDVFVDWLIRAGHPIDRVDDYDDWVRRFETALTALPEKRRAQTVLPLLHAFRAPQAPLRGAPEPTEVFHAAVRTAKVGPGDIPHLDEALIDKYIRDLREFGLI
B2: Sinorhizobium meliloti aminotransferase SM2011_b20423, SEQ ID NO: 60 (Sinorhizobium meliloti 1021) (protein)
chain: MLERSNELTAWDRDHFFHPSTHMGMHARGETPTRVIGGGEGVYITDISGKRSLDAFAGLYCVNVGYGRQKIADAIAEQAKNLAYYHAYVGHGTEASIRLSKMIIDRAPEGMSRVYFGLSGSDANETNIKLIWYYNNILGRPEKKKIISRWRGYHGSGVMTGSLTGLHLFHNAFDLPRAPILHTEAPYYFRRPDRSMSEEQFSQYCADKLEEMILAEGPDTVAAFIGEPILGTGGIVPPPKGYWEKIQAVLQKYDILLVADEVVTGFGRLGTMFGSDHYGIKPDLITIAKGLTSAYAPLSGTIVSDKLWQVLVKGSDELGAIGHGWTYSAHPICAAAGIANLELIDELGIVENAGSTGAYFRAELQKAVGDHRHVGEVRGDGLMAAIEFVEDRDDRAFFDPGRKVGPQVAAALLERGVIGRAMPQGDILGFAPPLCLTRDEADIVVKAAADTIQSVLGR
B3: Sinorhizobium meliloti aminotransferase SM2011_b20379, SEQ ID NO: 59 (Sinorhizobium meliloti 1021) (protein)
chain: MNDRPNSLHALDKQSLVHPYTNLAVHQETGPHVITGGDGIYVVDDEGKRYIEGLAGLFCAGLGFSEQRLVEAATRQLKTMPFYHSFAHKSTEPGIRLAEKLLSIAPVPMSKVFFAGSGSEANDTAIKLIWYYNNALGRPEKKKIISRRKAYHGVTVATASLTGLPFNHRDFDLPIANILHTDCPHYWRFAETGETEEDFATRMANNLEAIILEEGPETIAAFFAEPVMVSGGVITPPKTYFEKVQAVLRKYDILLIADEVICGFGRTGNMFGSETYGLKPDMISCAKQLSAAYMPISALMINAKIADALVDQSRKIGTFSHGFTYGGHPVAAAVALEALTIYEEIDIVGHVRSVAPAFQDRVRKLGEHPLIGEARGVGLVAGLEFVKDKATRENFPPAWQVANQAGKFATARGVLTRGLGDMVSLCPAMIIDDEQIDDLMTRMGLALDDTLAWARAQGHVG
B4: Sinorhizobium meliloti aminotransferase SM2011_c04388, SEQ ID NO: 58 (Sinorhizobium meliloti 1021) (protein)
chain: MNAHNKPNAPVLDSYWMPFTANRQFKAAPRLLAAAEGMHYTSVDGRTVLDGTAGLWCVNAGHGRRQIAAAVERQLSTMDFAPSFQMGHPIAFDFAERLAEIAPGPAGAKLDRVFFTGSGSESVDTALKMALAYQRSIGQGTRTRLIGRERGYHGVGFGGISVGGIVNNRRVFPQLPGSDHLRHTHDPAKNAFVKGQPEHGAELADDLERLVALHGAETIAACIVEPVAGSTGVLIPPKGYLERLRAICDKHGILLIFDEVITGFGRLGAAFATDYFGVTPDIVTTAKGLTNGAIPMGAVFASRKVHDALMHGPEGQIELFHGYTYSGHPAACAAGIATLDIYRDEGLMTRAAEIEGDWHEAMHSMKGLPHVIDIRTIGLIAGIELQSRDGAPGARAYDVFVDCFERGLLIRVTGDIIAFSPPLIAEKQHFGEIVSILADALKRVK
B5: Mycobacterium smegmatis carboxylate reductase MSMEG_2956, SEQ ID NO: 70 (Mycolicibacterium smegmatis MC2 155) (protein)
chain: MTIETREDRFNRRIDHLFETDPQFAAARPDEAISAAAADPELRLPAAVKQILAGYADRPALGKRAVEFVTDEEGRTTAKLLPRFDTITYRQLAGRIQAVTNAWHNHPVNAGDRVAILGFTSVDYTTIDIALLELGAVSVPLQTSAPVAQLQPIVAETEPKVIASSVDFLADAVALVESGPAPSRLVVFDYSHEVDDQREAFEAAKGKLAGTGVVVETITDALDRGRSLADAPLYVPDEADPLTLLIYTSGSTGTPKGAMYPESKTATMWQAGSKARWDETLGVMPSITLNFMPMSHVMGRGILCSTLASGGTAYFAARSDLSTFLEDLALVRPTQLNFVPRIWDMLFQEYQSRLDNRRAEGSEDRAEAAVLEEVRTQLLGGRFVSALTGSAPISAEMKSWVEDLLDMHLLEGYGSTEAGAVFIDGQIQRPPVIDYKLVDVPDLGYFATDRPYPRGELLVKSEQMFPGYYKRPEITAEMFDEDGYYRTGDIVAELGPDHLEYLDRRNNVLKLSQGEFVTVSKLEAVFGDSPLVRQIYVYGNSARSYLLAVVVPTEEALSRWDGDELKSRISDSLQDAARAAGLQSYEIPRDFLVETTPFTLENGLLTGIRKLARPKLKAHYGERLEQLYTDLAEGQANELRELRRNGADRPVVETVSRAAVALLGASVTDLRSDAHFTDLGGDSLSALSFSNLLHEIFDVDVPVGVIVSPATDLAGVAAYIEGELRGSKRPTYASVHGRDATEVRARDLALGKFIDAKTLSAAPGLPRSGTEIRTVLLTGATGFLGRYLALEWLERMDLVDGKVICLVRARSDDEARARLDATFDTGDATLLEHYRALAADHLEVIAGDKGEADLGLDHDTWQRLADTVDLIVDPAALVNHVLPYSQMFGPNALGTAELIRIALTTTIKPYVYVSTIGVGQGISPEAFVEDADIREISATRRVDDSYANGYGNSKWAGEVLLREAHDWCGLPVSVFRCDMILADTTYSGQLNLPDMFTRLMLSLVATGIAPGSFYELDADGNRQRAHYDGLPVEFIAEAISTIGSQVTDGFETFHVMNPYDDGIGLDEYVDWLIEAGYPVHRVDDYATWLSRFETALRALPERQRQASLLPLLHNYQQPSPPVCGAMAPTDRFRAAVQDAKIGPDKDIPHVTADVIVKYISNLQMLGLL
B6: Mycobacterium smegmatis carboxylate reductase MSMEI_5586, SEQ ID NO: 35 (Mycolicibacterium smegmatis MC2 155) (protein)
chain: MHQLTVTGMNICEVQRLFPRMTSDVHDATDGVTETALDDEQSTRRIAELYATDPEFAAAAPLPAVVDAAHKPGLRLAEILQTLFTGYGDRPALGYRARELATDEGGRTVTRLLPRFDTLTYAQVWSRVQAVAAALRHNFAQPIYPGDAVATIGFASPDYLTLDLVCAYLGLVSVPLQHNAPVSRLAPILAEVEPRILTVSAEYLDLAVESVRDVNSVSQLVVFDHHPEVDDHRDALARAREQLAGKGIAVTTLDAIADEGAGLPAEPIYTADHDQRLAMILYTSGSTGAPKGAMYTEAMVARLWTMSFITGDPTPVINVNFMPLNHLGGRIPISTAVQNGGTSYFVPESDMSTLFEDLALVRPTELGLVPRVADMLYQHHLATVDRLVTQGADELTAEKQAGAELREQVLGGRVITGFVSTAPLAAEMRAFLDITLGAHIVDGYGLTETGAVTRDGVIVRPPVIDYKLIDVPELGYFSTDKPYPRGELLVRSQTLTPGYYKRPEVTASVFDRDGYYHTGDVMAETAPDHLVYVDRRNNVLKLAQGEFVAVANLEAVFSGAALVRQIFVYGNSERSFLLAVVVPTPEALEQYDPAALKAALADSLQRTARDAELQSYEVPADFIVETEPFSAANGLLSGVGKLLRPNLKDRYGQRLEQMYADIAATQANQLRELRRAAATQPVIDTLTQAAATILGTGSEVASDAHFTDLGGDSLSALTLSNLLSDFFGFEVPVGTIVNPATNLAQLAQHIEAQRTAGDRRPSFTTVHGADATEIRASELTLDKFIDAETLRAAPGLPKVTTEPRTVLLSGANGWLGRFLTLQWLERLAPVGGTLITIVRGRDDAAARARLTQAYDTDPELSRRFAELADRHLRVVAGDIGDPNLGLTPEIWHRLAAEVDLVVHPAALVNHVLPYRQLFGPNVVGTAEVIKLALTERIKPVTYLSTVSVAMGIPDFEEDGDIRTVSPVRPLDGGYANGYGNSKWAGEVLLREAHDLCGLPVATFRSDMILAHPRYRGQVNVPDMFTRLLLSLLITGVAPRSFYIGDGERPRAHYPGLTVDFVAEAVTTLGAQQREGYVSYDVMNPHDDGISLDVFVDWLIRAGHPIDRVDDYDDWVRRFETALTALPEKRRAQTVLPLLHAFRAPQAPLRGAPEPTEVFHAAVRTAKVGPGDIPHLDEALIDKYIRDLREFGLI

Columns and labels:
[1] = substrate: O=C(O)CCCCCO; test: purified protein, by the assay type; conditions: other: ATP/NADPH dependent reduction; pH 7.5
[2] = substrate: O=CCCCCC=O; test: AT kinetics, coupled with alanine and glutamate dehydrogenases; type: biochemical, Sinorhizobium meliloti; conditions: other: amino-donor Ala/Glu; pH 7.5
Method: 28 PLP-dependent aminotransferases (from the classes I, II and III) were cloned and overexpressed in E. coli (Table 6). Enzymes were purified using affinity chromatography on a Ni-NTA resin and were screened for […] activity towards adipaldehyde using alanine and glutamate as amino-donors. Enzyme activity was measured spectrophotometrically using a coupled reaction with the NADPH/NADH-dependent alanine and glutamate dehydrogenases in the presence of excess of ammonium chloride.
Reaction was monitored by following the decrease in absorbance of NAD(P)H to NAD(P)+ at 340 nm (ε340 nm=6,220/M·cm). Coupled enzymes can aminate pyruvate/ketoglutarate produced by ATs in excess of NH4Cl.

Protein	Km [1]	kcat [1]	kcat/Km [1]	Km [2]	kcat [2]	kcat/Km [2]
B1	8.33 ± 0.73 mM	1.21 ± 0.04 s⁻¹	145 ± 4.4 M⁻¹ s⁻¹	–	–	–
B2	–	–	–	2.64 ± 0.35 mM	0.28 ± 0.01 s⁻¹	(1.05 ± 0.06) × ×10^2 M^−1 · s^−1
B3	–	–	–	0.32 ± 0.10 mM	0.26 ± 0.05 s⁻¹	(8.08 ± 1.52) × ×10^2 M^−1 · s^−1
B4	–	–	–	8.58 ± 3.34 mM	–	–
B5	66.15 ± 9.48 mM	2.32 ± 0.22 s⁻¹	35.1 ± 3.29 M⁻¹ s⁻¹	–	–	–
B6	16.2 ± 2.11 mM	1.2 ± 0.07 s⁻¹	74.2 ± 4.05 M⁻¹ s⁻¹	–	–	–
